Experiment [1] addresses CD94/NKG2A. The experiment can be described thus: BLI. On the technique in general: In BLI a coated tip is dipped into the sample, and binding shifts an interference pattern.
Target sequence in this assay (main, as listed by the source): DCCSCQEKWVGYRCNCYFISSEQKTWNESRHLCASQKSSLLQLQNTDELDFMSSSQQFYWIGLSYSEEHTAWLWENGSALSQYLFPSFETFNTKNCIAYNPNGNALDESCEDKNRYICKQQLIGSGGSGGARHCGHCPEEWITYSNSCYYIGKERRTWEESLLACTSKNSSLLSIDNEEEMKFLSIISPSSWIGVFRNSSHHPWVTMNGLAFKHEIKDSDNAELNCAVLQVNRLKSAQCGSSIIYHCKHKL
For experiment [2], the target named is CD94/NKG2A. The experiment can be described thus: reported IC50; reported value.
Experiment [3] addresses CD94/NKG2A. The experiment can be described thus: competitive ELISA (HLA-E tetramer). In general terms: An ELISA detects its analyte on a solid surface through an enzyme-linked reagent.
Target sequence in this assay (main, as listed by the source): as above
The target of experiment [4] is CD94/NKG2A. Description: competitive ELISA (HLA-E tetramer); FIG. 26.
Target sequence in this assay (main, as listed by the source): as above

Drawing on patent US20240415889A1, this text covers Kd and IC50 for two substances.

One may read the Kd as the concentration at which binding is half-saturated. Low readings indicate a tighter complex, high ones a looser complex. On to Mona analog IgG1 (LALA-PG), for which the equilibrium dissociation constant (Kd) with CD94/NKG2A [1] was determined as 4.32 nM.
A word on the IC50: it is the concentration that inhibits the measured activity by half. Read a high IC50 as weaker potency in that assay. Consider Monalizumab, for which the figures for the half-maximal inhibitory concentration (IC50) with CD94/NKG2A [2], with CD94/NKG2A [3] and in the experiment with CD94/NKG2A [4] were 2 nM, 1.5 nM and 1 nM, respectively.
